Assay results published in the supplement of paper PMC10567573.

B1: CRYL1 (parent)
chain: RNALENIRKEMKLLEQAGSLKGSL

Variants of: B1
Assay: protein stability index of a GFP-peptide fusion (GPS, HEK-293T) (PSI 1-6); higher = more stable
Conditions: c terminus: a fixed tail appended
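Note: lentivirally expressed fusions sorted by FACS into six bins by GFP to DsRed ratio, PSI derived from sequencing read proportions per bin multiplied by bin number.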

Row | Variant | protein stability index
1 | K12T | 3.54
2 | K12S | 3.53
3 | K12Q | 3.31
4 | K12I | 3.46
5 | K12E | 3.38
6 | K12Y | 3.75
7 | K12W | 1.72
8 | K12R | 3.06
9 | K12P | 4.57
10 | K12F | 2.39
11 | K12N | 3.36
12 | N2G | 3.57
13 | N2L | 2.88
14 | N2P | 4.16
15 | N2R | 3.49
16 | N2F | 2.87
17 | N2I | 2.69
18 | N2Q | 3.39
19 | N2T | 2.92
20 | N2M | 3.05
21 | N2A | 3.1
22 | N2K | 2.83
23 | N2D | 3.52
24 | L14C | 3.39

Row | Variant | protein stability index
25 | L14I | 3.47
26 | L14W | 3.17
27 | L14P | 3.93
28 | L14A | 3.77
29 | L14K | 4.03
30 | L14Q | 4.18
31 | L14V | 3.85
32 | L14S | 3.77
33 | L14T | 3.79
34 | S19I | 2.62
35 | S19A | 2.51
36 | S19F | 1.9
37 | S19P | 3.54
38 | S19R | 3.08
39 | S19Q | 2.85
40 | S19Y | 2.17
41 | S19D | 3.71
42 | S19T | 3.22
43 | S19K | 3.42
44 | S19E | 4.14
45 | S19G | 3.12
46 | K9E | 3.83
47 | K9D | 3.57
48 | K9L | 1.94

Row | Variant | protein stability index
49 | K9H | 2.9
50 | K9I | 1.48
51 | K9F | 1.95
52 | K9R | 3.31
53 | K9N | 3.12
54 | K9Q | 3.29
55 | K9G | 3.61
56 | K9S | 3.61
57 | K9V | 3.78
58 | K9C | 2.29
59 | L13Y | 2.98
60 | L13K | 3.87
61 | L13H | 4.32
62 | L13R | 3.66
63 | L13N | 3.53
64 | L13G | 4.1
65 | L13F | 2.85
66 | L13P | 4.52
67 | L13I | 3.77
68 | L13E | 3.94
69 | L13A | 3.89
70 | M11I | 3.24
71 | M11D | 4.34
72 | M11Y | 2.92

Row | Variant | protein stability index
73 | M11T | 4.37
74 | M11G | 4
75 | M11E | 4.45
76 | M11R | 4.01
77 | M11K | 2.79
78 | M11A | 3.4
79 | M11Q | 3.93
80 | M11L | 3.1
81 | M11P | 4.49
82 | M11S | 4.92
83 | M11F | 3.13
84 | Q16S | 2.62
85 | Q16E | 3.75
86 | Q16W | 2.11
87 | Q16I | 2.76
88 | Q16K | 3.02
89 | Q16L | 2.06
90 | Q16G | 3.7
91 | Q16N | 3.75
92 | Q16P | 3.3
93 | Q16M | 2.76
94 | Q16H | 3.25
95 | Q16V | 2.89
96 | Q16T | 3.01

Row | Variant | protein stability index
97 | Q16D | 4.1
98 | Q16C | 3.35
99 | Q16A | 2.93
100 | L24P | 3.77
101 | L24E | 4.08
102 | L24D | 3.99
103 | L24C | 4.05
104 | L24V | 3.66
105 | L24K | 4.12
106 | L24W | 3.16
107 | L24T | 3.47
108 | L24Y | 3.08
109 | L24F | 3.13
110 | L24N | 3.81
111 | L24S | 3.95
112 | L24I | 3.2
113 | E15T | 3.08
114 | E15W | 1.49
115 | E15S | 2.58
116 | E15G | 3.05
117 | E15A | 2.17
118 | E15Q | 3.57
119 | E15Y | 2.21
120 | E15M | 2.87

Row | Variant | protein stability index
121 | E15P | 3.37
122 | E15D | 3.63
123 | E15N | 3.16
124 | E15F | 2.9
125 | E15L | 2.16
126 | E15C | 3.2
127 | E15R | 3.63
128 | E15V | 2.39
129 | E15K | 2.48
130 | E10M | 1.23
131 | E10T | 2.39
132 | E10C | 1.83
133 | E10A | 2.36
134 | E10I | 1.92
135 | E10K | 2.31
136 | E10Q | 2.59
137 | E10F | 1.61
138 | E10Y | 1.08
139 | E10L | 2.44
140 | E10N | 2.89
141 | E10S | 2.33
142 | E10H | 2.68
143 | S23M | 2.27
144 | S23E | 3.84

Row | Variant | protein stability index
145 | S23P | 3.56
146 | S23Y | 2.73
147 | S23N | 3.22
148 | S23G | 3.4
149 | S23Q | 3.32
150 | S23L | 1.87
151 | S23F | 2.64
152 | S23T | 2.8
153 | S23D | 3.48
154 | S23C | 3.08
155 | S23H | 3.12
156 | E5D | 3.85
157 | E5V | 2.82
158 | E5P | 3.7
159 | E5S | 2.78
160 | E5G | 3.21
161 | E5M | 3
162 | E5N | 2.46
163 | E5Y | 1.97
164 | E5I | 3.57
165 | E5H | 2.88
166 | E5F | 2.5
167 | E5A | 2.68
168 | E5C | 2.98

Row | Variant | protein stability index
169 | E5Q | 3.34
170 | E5L | 2.55
171 | E5R | 3.06
172 | E5W | 2.69
173 | K21F | 2.35
174 | K21G | 2.56
175 | K21P | 2.79
176 | K21W | 2.17
177 | K21D | 3.55
178 | K21R | 2.68
179 | K21I | 2.4
180 | K21A | 2.71
181 | K21E | 3.93
182 | K21C | 3.3
183 | K21L | 2.37
184 | K21T | 3.6
185 | K21Y | 2.78
186 | A3M | 3.75
187 | A3E | 2.94
188 | A3Q | 3.9
189 | A3I | 2.31
190 | A3L | 2.64
191 | A3T | 4.32
192 | A3W | 2.57

Row | Variant | protein stability index
193 | A3N | 3.75
194 | A3R | 3.98
195 | A3C | 2.45
196 | A3F | 2.6
197 | A3S | 4.31
198 | G18L | 1.83
199 | G18W | 2.37
200 | G18F | 2.13
201 | G18Q | 3.48
202 | G18Y | 2.12
203 | G18N | 3.84
204 | G18K | 3.52
205 | G18D | 3.64
206 | G18H | 3.08
207 | G18V | 2.8
208 | G18S | 3.41
209 | G18I | 1.98
210 | G18M | 2.12
211 | G18T | 3.39
212 | G18E | 3.58
213 | G18P | 4.33
214 | G18R | 3.23
215 | N6S | 3.72
216 | N6L | 2.17

Row | Variant | protein stability index
217 | N6G | 3.79
218 | N6K | 3.06
219 | N6Y | 2.53
220 | N6D | 3.76
221 | N6T | 2.53
222 | N6C | 2.33
223 | N6H | 3.38
224 | N6M | 2.98
225 | N6W | 2.23
226 | N6P | 3.4
227 | L20W | 2.9
228 | L20F | 2.86
229 | L20N | 4.28
230 | L20P | 4.09
231 | L20M | 2.84
232 | L20Q | 4.71
233 | L20S | 3.98
234 | L20R | 4.17
235 | L20T | 3.56
236 | L20V | 4.17
237 | L20D | 4.16
238 | L20E | 4.79
239 | L20C | 3.65
240 | L20Y | 3.9

Row | Variant | protein stability index
241 | L20G | 4.08
242 | L4A | 3.93
243 | L4M | 3.37
244 | L4Q | 4.75
245 | L4E | 4.65
246 | L4N | 4.39
247 | L4C | 4.05
248 | L4G | 3.14
249 | L4I | 3.21
250 | L4H | 4.15
251 | L4S | 4.36
252 | L4D | 5
253 | L4K | 3.67
254 | L4W | 3.16
255 | I7S | 3.69
256 | I7C | 2.3
257 | I7H | 3.74
258 | I7T | 3.9
259 | I7W | 3.15
260 | I7Y | 3.67
261 | I7D | 4.75
262 | I7F | 2.37
263 | I7N | 4.37
264 | I7P | 4.22

Row | Variant | protein stability index
265 | I7K | 5.08
266 | I7V | 3.53
267 | G22Q | 3.36
268 | G22C | 2.65
269 | G22F | 2.65
270 | G22A | 3.21
271 | G22N | 3.04
272 | G22R | 3.4
273 | G22I | 1.4
274 | G22P | 3.51
275 | G22V | 2.15
276 | G22W | 2
277 | G22D | 4.1
278 | G22T | 3.77
279 | G22Y | 2.28
280 | G22M | 2.27
281 | G22S | 3.14
282 | G22H | 2.94
283 | R1K | 3.77
284 | R1F | 2.46
285 | R1N | 3.83
286 | R1D | 3.7
287 | R1E | 3.65
288 | R1H | 3.47

Row | Variant | protein stability index
289 | R1I | 2.69
290 | R1M | 3.11
291 | R1L | 3.21
292 | R1V | 3.53
293 | R1W | 3.34
294 | R1G | 3.82
295 | R1A | 2.86
296 | R1T | 3.87
297 | R1Y | 3.04
298 | R1S | 3.48
299 | R1P | 3.37
300 | R1Q | 3.65
301 | R8N | 4.19
302 | R8K | 3.04
303 | R8L | 1.65
304 | R8Q | 3.92
305 | R8I | 1.84
306 | R8C | 2.84
307 | R8H | 4.05
308 | R8T | 4.19
309 | R8F | 2.07
310 | R8S | 3.87
311 | R8W | 2.3
312 | R8D | 4.49

Row | Variant | protein stability index
313 | R8A | 3.72
314 | R8E | 2.58
315 | R8P | 4.29
316 | R8V | 3.25
317 | R8Y | 2.45
318 | A17K | 3.51
319 | A17E | 3.84
320 | A17T | 3.4
321 | A17Y | 2.32
322 | A17M | 3.32
323 | A17D | 3.97
324 | A17P | 3.5
325 | A17C | 2.48
326 | A17H | 3.06
327 | A17G | 3.4
328 | A17V | 3.58
329 | A17F | 2.22
330 | A17N | 3.62
331 | A17S | 3.72
332 | A17L | 3.18
333 | A17Q | 4.01
334 | A17W | 2.33
